What all share (assay): cell-based or functional assay
The target of assay [1] is human GLP-1 receptor (human) (UniProt P43220).
The target in assay [2] is human glucagon receptor (human) (UniProt P47871).
Assay [3] deals with T1, human GLP-1 receptor (human, UniProt P43220 24-463).
Assay [4] deals with T2, human GIP receptor (human, UniProt P48546 22-466).
T2 sequence (looked up): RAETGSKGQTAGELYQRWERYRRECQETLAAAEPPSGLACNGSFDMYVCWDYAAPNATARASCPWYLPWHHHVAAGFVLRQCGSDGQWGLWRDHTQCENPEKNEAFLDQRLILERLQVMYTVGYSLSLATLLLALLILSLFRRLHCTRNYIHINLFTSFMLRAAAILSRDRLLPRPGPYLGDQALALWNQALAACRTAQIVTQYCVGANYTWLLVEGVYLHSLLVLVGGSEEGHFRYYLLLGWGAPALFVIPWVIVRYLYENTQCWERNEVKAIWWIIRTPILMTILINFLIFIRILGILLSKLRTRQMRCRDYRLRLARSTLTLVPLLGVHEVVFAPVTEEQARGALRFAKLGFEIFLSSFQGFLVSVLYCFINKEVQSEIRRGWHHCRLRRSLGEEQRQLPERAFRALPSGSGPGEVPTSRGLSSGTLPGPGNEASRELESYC

A further assay addresses human glucagon receptor (human, UniProt P47871 26-477).
The target in assay [5] is T1, human GLP-1 receptor. This is another data set of the same source.
Target sequence in this assay (P43220 24-463): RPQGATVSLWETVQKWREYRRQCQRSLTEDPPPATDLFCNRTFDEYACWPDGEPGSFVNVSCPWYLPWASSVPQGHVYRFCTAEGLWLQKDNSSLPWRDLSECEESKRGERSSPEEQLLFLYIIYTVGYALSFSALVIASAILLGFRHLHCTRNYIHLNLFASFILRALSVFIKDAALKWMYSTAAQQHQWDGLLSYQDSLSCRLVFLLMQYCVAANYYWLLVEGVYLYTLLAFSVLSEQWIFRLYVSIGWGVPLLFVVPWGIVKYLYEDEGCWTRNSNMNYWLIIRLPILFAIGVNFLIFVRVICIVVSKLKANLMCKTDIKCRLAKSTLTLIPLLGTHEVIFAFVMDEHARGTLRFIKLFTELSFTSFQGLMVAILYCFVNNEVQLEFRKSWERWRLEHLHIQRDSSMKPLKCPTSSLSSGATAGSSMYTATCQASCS
The target of assay [6] is T2, human GIP receptor. This is another data set of the same source.

The results in this text go back to patent US20150164995A1 (Sanofi, published 2015).

Where two headings read alike, the source gives them in different places. Square brackets hold non-standard residues; d marks the D form. Ends that are not written are not given here. Nle = CCCC[C@H](N)C(=O)O; Aib = CC(C)(N)C(=O)O

Chain of human glucagon receptor (P47871 26-477): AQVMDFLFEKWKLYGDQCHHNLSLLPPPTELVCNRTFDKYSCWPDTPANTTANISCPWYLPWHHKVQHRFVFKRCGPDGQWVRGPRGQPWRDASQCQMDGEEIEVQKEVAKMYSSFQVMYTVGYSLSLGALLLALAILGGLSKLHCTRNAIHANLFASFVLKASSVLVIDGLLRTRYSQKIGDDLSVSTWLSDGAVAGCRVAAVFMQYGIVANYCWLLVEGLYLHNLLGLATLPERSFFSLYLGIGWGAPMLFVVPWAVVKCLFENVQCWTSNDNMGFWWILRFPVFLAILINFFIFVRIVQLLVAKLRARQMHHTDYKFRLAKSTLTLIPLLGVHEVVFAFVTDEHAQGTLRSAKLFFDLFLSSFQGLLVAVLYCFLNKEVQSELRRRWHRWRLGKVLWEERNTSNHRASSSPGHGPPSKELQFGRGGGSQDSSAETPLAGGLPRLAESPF
Chain of human glucagon receptor (human) (P47871 26-477): as above
Chain of human GLP-1 receptor (human) (P43220 24-463): as the sequence (P43220 24-463) above

exendin-4 (peptide): the EC50 hGLP-1 R [pM] (cAMP formation, HTRF, HEK-293 cells) in assay [1] was found to be 0.4 pM. In assay [2], this molecule came in with an EC50 hGlucagon R [pM] (cAMP formation, HTRF, HEK-293 cells) greater than 1e+07 pM.

B1: SEQ ID NO: 11 (peptide)
peptide: Y[Aib]EGTFTSDLSIQLEKRAA[Aib]EFIEWLKAGGPSSGAPPPSK-NH2
modifications: N-terminus assumed
SMILES: CC[C@H](C)[C@H](NC(=O)[C@H](CO)NC(=O)[C@H](CC(C)C)NC(=O)[C@H](CC(=O)O)NC(=O)[C@H](CO)NC(=O)[C@@H](NC(=O)[C@H](Cc1ccccc1)NC(=O)[C@@H](NC(=O)CNC(=O)[C@H](CCC(=O)O)NC(=O)C(C)(C)NC(=O)[C@@H](N)Cc1ccc(O)cc1)[C@@H](C)O)[C@@H](C)O)C(=O)N[C@@H](CCC(N)=O)C(=O)N[C@@H](CC(C)C)C(=O)N[C@@H](CCC(=O)O)C(=O)N[C@@H](CCCCN)C(=O)N[C@@H](CCCNC(=N)N)C(=O)N[C@@H](C)C(=O)N[C@@H](C)C(=O)NC(C)(C)C(=O)N[C@@H](CCC(=O)O)C(=O)N[C@@H](Cc1ccccc1)C(=O)N[C@H](C(=O)N[C@@H](CCC(=O)O)C(=O)N[C@@H](Cc1c[nH]c2ccccc12)C(=O)N[C@@H](CC(C)C)C(=O)N[C@@H](CCCCN)C(=O)N[C@@H](C)C(=O)NCC(=O)NCC(=O)N1CCC[C@H]1C(=O)N[C@@H](CO)C(=O)N[C@@H](CO)C(=O)NCC(=O)N[C@@H](C)C(=O)N1CCC[C@H]1C(=O)N1CCC[C@H]1C(=O)N1CCC[C@H]1C(=O)N[C@@H](CO)C(=O)N[C@@H](CCCCN)C(N)=O)[C@@H](C)CC
As for B1, the “EC50 hGLP-1 R [pM] (cAMP formation, HTRF, HEK-293 cells)” value (shortened to “EC50 hGLP-1 R [pM]”) in the assay with human GLP-1 receptor [3] amounted to 1.6 pM. The “EC50 hGlP R [pM] (cAMP formation, HTRF, HEK-293 cells)” value (shortened to “EC50 hGlP R [pM]”) in the assay with human GIP receptor [4] came to 14.1 pM. Further, the “EC50 hGLUC R [pM] (cAMP formation, HTRF, HEK-293 cells)” value (“EC50 hGLUC R [pM]” for short) with human glucagon receptor was determined as 129000 pM.

B2: SEQ ID NO: 12 (peptide)
peptide: Y[Aib]EGTFTSDLSIQLDKRAA[Aib]EFIEWLKAGGPSSGAPPPS-NH2
modifications: N-terminus assumed
SMILES: CC[C@H](C)[C@H](NC(=O)[C@H](CO)NC(=O)[C@H](CC(C)C)NC(=O)[C@H](CC(=O)O)NC(=O)[C@H](CO)NC(=O)[C@@H](NC(=O)[C@H](Cc1ccccc1)NC(=O)[C@@H](NC(=O)CNC(=O)[C@H](CCC(=O)O)NC(=O)C(C)(C)NC(=O)[C@@H](N)Cc1ccc(O)cc1)[C@@H](C)O)[C@@H](C)O)C(=O)N[C@@H](CCC(N)=O)C(=O)N[C@@H](CC(C)C)C(=O)N[C@@H](CC(=O)O)C(=O)N[C@@H](CCCCN)C(=O)N[C@@H](CCCNC(=N)N)C(=O)N[C@@H](C)C(=O)N[C@@H](C)C(=O)NC(C)(C)C(=O)N[C@@H](CCC(=O)O)C(=O)N[C@@H](Cc1ccccc1)C(=O)N[C@H](C(=O)N[C@@H](CCC(=O)O)C(=O)N[C@@H](Cc1c[nH]c2ccccc12)C(=O)N[C@@H](CC(C)C)C(=O)N[C@@H](CCCCN)C(=O)N[C@@H](C)C(=O)NCC(=O)NCC(=O)N1CCC[C@H]1C(=O)N[C@@H](CO)C(=O)N[C@@H](CO)C(=O)NCC(=O)N[C@@H](C)C(=O)N1CCC[C@H]1C(=O)N1CCC[C@H]1C(=O)N1CCC[C@H]1C(=O)N[C@@H](CO)C(N)=O)[C@@H](C)CC
For B2, the “EC50 hGLP-1 R [pM]” value in the assay with human GLP-1 receptor [3] is 2.6 pM. The “EC50 hGlP R [pM]” value with human GIP receptor [4] was determined as 17.9 pM. Besides, in the assay with human glucagon receptor, the “EC50 hGLUC R [pM]” value is 17900 pM.

B3: Tyr(1)Ile(12)-GLP1 (peptide)
peptide: YAEGTFTSDVSIYLEGQAAKEFIAWLVKGR
modifications: ends and bridges not checked
Consider B3, for which the “EC50 hGLP-1 R [pM]” value with human GLP-1 receptor [5] was determined as 5 pM. The “EC50 hGlP R [pM]” value in the assay with human GIP receptor [6] came to 3660 pM.

B4: SEQ ID NO: 9 (peptide)
peptide: Y[Aib]EGTFTSDLSIQLEKRAA[Aib]EFIEWLKAGGPSSGAPPPS-NH2
modifications: N-terminus assumed
SMILES: CC[C@H](C)[C@H](NC(=O)[C@H](CO)NC(=O)[C@H](CC(C)C)NC(=O)[C@H](CC(=O)O)NC(=O)[C@H](CO)NC(=O)[C@@H](NC(=O)[C@H](Cc1ccccc1)NC(=O)[C@@H](NC(=O)CNC(=O)[C@H](CCC(=O)O)NC(=O)C(C)(C)NC(=O)[C@@H](N)Cc1ccc(O)cc1)[C@@H](C)O)[C@@H](C)O)C(=O)N[C@@H](CCC(N)=O)C(=O)N[C@@H](CC(C)C)C(=O)N[C@@H](CCC(=O)O)C(=O)N[C@@H](CCCCN)C(=O)N[C@@H](CCCNC(=N)N)C(=O)N[C@@H](C)C(=O)N[C@@H](C)C(=O)NC(C)(C)C(=O)N[C@@H](CCC(=O)O)C(=O)N[C@@H](Cc1ccccc1)C(=O)N[C@H](C(=O)N[C@@H](CCC(=O)O)C(=O)N[C@@H](Cc1c[nH]c2ccccc12)C(=O)N[C@@H](CC(C)C)C(=O)N[C@@H](CCCCN)C(=O)N[C@@H](C)C(=O)NCC(=O)NCC(=O)N1CCC[C@H]1C(=O)N[C@@H](CO)C(=O)N[C@@H](CO)C(=O)NCC(=O)N[C@@H](C)C(=O)N1CCC[C@H]1C(=O)N1CCC[C@H]1C(=O)N1CCC[C@H]1C(=O)N[C@@H](CO)C(N)=O)[C@@H](C)CC
As to B4, in the assay with human GLP-1 receptor [3], the “EC50 hGLP-1 R [pM]” value was 1.2 pM. In addition, the “EC50 hGlP R [pM]” value with human GIP receptor [4] is 7.9 pM. For the same molecule, the “EC50 hGLUC R [pM]” value in the assay with human glucagon receptor came to 155000 pM.

B5: SEQ ID NO: 8 (peptide)
peptide: Y[Aib]EGTFTSDLSIQMEKRAA[Aib]EFIEWLKAGGPSSGAPPPS-NH2
In the case of B5, the “EC50 hGLP-1 R [pM]” value in the assay with human GLP-1 receptor [3] stood at 1.5 pM. For the same molecule, the “EC50 hGlP R [pM]” value in the assay with human GIP receptor [4] amounted to 14.4 pM. Besides, the “EC50 hGLUC R [pM]” value in the assay with human glucagon receptor is greater than 1e+06 pM.

B6: SEQ ID NO: 10 (peptide)
peptide: Y[Aib]EGTFTSDLSIQ[Nle]EKRAA[Aib]EFIEWLKAGGPSSGAPPPS-NH2
modifications: N-terminus assumed
SMILES: CCCC[C@H](NC(=O)[C@H](CCC(N)=O)NC(=O)[C@@H](NC(=O)[C@H](CO)NC(=O)[C@H](CC(C)C)NC(=O)[C@H](CC(=O)O)NC(=O)[C@H](CO)NC(=O)[C@@H](NC(=O)[C@H](Cc1ccccc1)NC(=O)[C@@H](NC(=O)CNC(=O)[C@H](CCC(=O)O)NC(=O)C(C)(C)NC(=O)[C@@H](N)Cc1ccc(O)cc1)[C@@H](C)O)[C@@H](C)O)[C@@H](C)CC)C(=O)N[C@@H](CCC(=O)O)C(=O)N[C@@H](CCCCN)C(=O)N[C@@H](CCCNC(=N)N)C(=O)N[C@@H](C)C(=O)N[C@@H](C)C(=O)NC(C)(C)C(=O)N[C@@H](CCC(=O)O)C(=O)N[C@@H](Cc1ccccc1)C(=O)N[C@H](C(=O)N[C@@H](CCC(=O)O)C(=O)N[C@@H](Cc1c[nH]c2ccccc12)C(=O)N[C@@H](CC(C)C)C(=O)N[C@@H](CCCCN)C(=O)N[C@@H](C)C(=O)NCC(=O)NCC(=O)N1CCC[C@H]1C(=O)N[C@@H](CO)C(=O)N[C@@H](CO)C(=O)NCC(=O)N[C@@H](C)C(=O)N1CCC[C@H]1C(=O)N1CCC[C@H]1C(=O)N1CCC[C@H]1C(=O)N[C@@H](CO)C(N)=O)[C@@H](C)CC
On to B6, for which the “EC50 hGLP-1 R [pM]” value with human GLP-1 receptor [3] was found to be 1.4 pM. Also, in the assay with human GIP receptor [4], the “EC50 hGlP R [pM]” value stood at 12.4 pM. In the assay with human glucagon receptor, the “EC50 hGLUC R [pM]” value stood at 193000 pM.
